The target in this assay is T1, MBP-tagged eIF2α (MBP-eIF2α) (human, UniProt P05198 1-315).
T1 construct: full-length human EIF2S1 cDNA in pMAL-c2x; source: Rosetta E. coli, purified (dextrin beads 6FF)
The assay can be described thus: pull-down; 0.5 µg purified GST or GST-tagged proteins on glutathione magnetic beads, incubated with 0.5 µg purified MBP or MBP-eIF2α for 4 h at 4°C; six washes with 400 mM NaCl, 0.5% Triton X-100; western blot. The settings on record: both partners purified.

Experimental findings from article PMC9691347, “C9orf72 regulates the unfolded protein response and stress granule formation by interacting with eIF2α” (Theranostics, 2022) are described below.

T1 sequence (P05198 whole entry): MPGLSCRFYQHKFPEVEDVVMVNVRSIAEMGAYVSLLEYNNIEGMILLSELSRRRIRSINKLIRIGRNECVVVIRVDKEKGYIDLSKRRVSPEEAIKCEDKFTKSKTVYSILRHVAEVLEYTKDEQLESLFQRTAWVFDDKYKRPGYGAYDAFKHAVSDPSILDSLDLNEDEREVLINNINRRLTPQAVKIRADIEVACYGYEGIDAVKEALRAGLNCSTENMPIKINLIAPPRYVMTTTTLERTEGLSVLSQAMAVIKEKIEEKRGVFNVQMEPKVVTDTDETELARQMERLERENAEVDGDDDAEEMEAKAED

B1: GST-tagged C9orf72 short protein isoform (GST-C9S) (natural protein, human, UniProt Q96LT7-2 1-222, looked up)
chain: MSTLCPPPSPAVAKTEIALSGKSPLLAATFAYWDNILGPRVRHIWAPKTEQVLLSDGEITFLANHTLNGEILRNAESGAIDVKFFVLSEKGVIIVSLIFDGNWNGDRSTYGLSIILPQTELSFYLPLHRVCVDRLTHIIRKGRIWMHKERQENVQKIILEGTERMEDQGQSIIPMLTGEVIPVMELLSSMKSHSVPEEIDIADTVLNDDDIGDSCHEGFLLK
notes: human C9orf72 short protein isoform, 222 aa, encoded by exons 2-5; pGEX-6P-1 vector; source: Rosetta E. coli, purified (glutathione magnetic beads)
As to B1, the binding result was “binds”.
